The values below come from patent US20200199559A1.

Where two headings read alike, the source gives them in different places.

Data set [1] relates to T1, wild type Penicillium oxalicum glucoamylase.
T1 sequence: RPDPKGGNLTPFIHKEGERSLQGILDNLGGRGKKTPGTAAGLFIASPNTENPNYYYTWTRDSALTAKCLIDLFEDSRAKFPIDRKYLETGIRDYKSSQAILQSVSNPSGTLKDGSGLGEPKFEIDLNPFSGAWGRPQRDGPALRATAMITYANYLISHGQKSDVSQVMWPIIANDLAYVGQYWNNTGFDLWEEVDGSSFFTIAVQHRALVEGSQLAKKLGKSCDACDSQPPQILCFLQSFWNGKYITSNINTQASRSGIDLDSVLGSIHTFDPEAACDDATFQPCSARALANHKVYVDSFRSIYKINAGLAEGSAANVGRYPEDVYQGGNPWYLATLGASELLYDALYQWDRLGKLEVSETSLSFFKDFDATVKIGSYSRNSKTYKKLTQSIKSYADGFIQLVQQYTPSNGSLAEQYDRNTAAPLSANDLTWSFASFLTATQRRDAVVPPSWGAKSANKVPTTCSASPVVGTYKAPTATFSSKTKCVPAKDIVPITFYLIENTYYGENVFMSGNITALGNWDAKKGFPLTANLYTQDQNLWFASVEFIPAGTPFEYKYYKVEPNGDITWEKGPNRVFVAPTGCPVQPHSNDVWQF

Data set [2] deals with wild type Penicillium oxalicum glucoamylase (Penicillium oxalicum). Kind of data set: cell-based or functional assay.
Data set [3] deals with Glucoamylase PE001: variant of the Penicillium oxalicum glucoamylase having a K79V substitution (Penicillium oxalicum). Description: cell-based or functional assay.
Data set [4] has as its target T2, wild type Penicillium oxalicum glucoamylase.
T2 chain: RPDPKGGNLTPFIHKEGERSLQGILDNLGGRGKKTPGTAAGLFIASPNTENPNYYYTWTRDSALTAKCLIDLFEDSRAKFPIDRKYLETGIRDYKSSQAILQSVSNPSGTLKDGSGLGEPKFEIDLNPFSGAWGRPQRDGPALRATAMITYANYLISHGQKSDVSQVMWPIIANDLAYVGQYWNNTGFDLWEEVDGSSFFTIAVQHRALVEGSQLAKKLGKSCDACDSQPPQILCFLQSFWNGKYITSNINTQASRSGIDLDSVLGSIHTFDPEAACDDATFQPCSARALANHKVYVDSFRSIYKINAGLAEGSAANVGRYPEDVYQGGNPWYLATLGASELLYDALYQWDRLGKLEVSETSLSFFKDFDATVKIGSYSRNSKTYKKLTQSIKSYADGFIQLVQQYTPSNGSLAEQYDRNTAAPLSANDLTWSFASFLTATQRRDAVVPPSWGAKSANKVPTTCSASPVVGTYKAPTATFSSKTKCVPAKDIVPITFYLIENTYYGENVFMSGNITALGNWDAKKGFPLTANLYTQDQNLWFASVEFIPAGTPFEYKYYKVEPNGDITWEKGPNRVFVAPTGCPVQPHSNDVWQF

As for aspergillopepsin I, in data set [1], the “cleaved glucoamylase (ca. 60 kDa), SDS-PAGE after protease treatment overnight at 32° C.” value is on record as 10%.

In data set [2], aspergillopepsin I (enzyme) showed an intact glucoamylase (ca. 70 kDa), SDS-PAGE after protease treatment overnight at 4° C. of 100% and an intact glucoamylase (ca. 70 kDa), SDS-PAGE after protease treatment overnight at 32° C. of 90%. In data set [3], this molecule showed an intact glucoamylase (ca. 70 kDa), SDS-PAGE after protease treatment overnight at 4° C. of 100% and an intact glucoamylase (ca. 70 kDa), SDS-PAGE after protease treatment overnight at 32° C. of 100%.

B1: aorsin (protein)
chain: GLNVTNCDQLITPECIRALYKIPSARAAPHPNNSLGIFEEGDYYAQEDLDLFFKTFAKDIPQGTHPIPAFIDGAEAPVPVTKAGGESDLDFELAYPIVHPQSITLYQTDDANWASNTTGFLNTFLDALDGSYCTYCAYGECGNDPSLDPVYPDDAGYDGQLMCGVFKPTNVISVSYGEQENDLPANYQQRQCMEFLKLGLQGVSVLFASGDNGVAGPPGDGNSVNGCLNNGTVFSPAFPNSCPYITNVGATKVYPGYTVSQPESAVYDPDGLYSYASGGGFSNIYPIPDYQAEAVATYFKDHNPPYPYYEGAENLGKNGGLYNRLGRGYPDVAANGDNIAVFNGGEFGSSGGTSASTPIFASIINRIIDERLAVGKGPVGFINPVLYKNPSVLNDITNGTNPGCGTDGFSTAPGWDPATGLGTPNYPKMLKLWLDLP
In data set [2], B1 yielded an intact glucoamylase (ca. 70 kDa), SDS-PAGE after protease treatment overnight at 4° C. of 40% and an intact glucoamylase (ca. 70 kDa), SDS-PAGE after protease treatment overnight at 32° C. of 10%. In data set [3], this molecule had an intact glucoamylase (ca. 70 kDa), SDS-PAGE after protease treatment overnight at 4° C. of 100% and an intact glucoamylase (ca. 70 kDa), SDS-PAGE after protease treatment overnight at 32° C. of 100%. Besides, in data set [4], the “cleaved glucoamylase (ca. 60 kDa), SDS-PAGE after protease treatment overnight at 4° C.” value was determined as 60% and the “cleaved glucoamylase (ca. 60 kDa), SDS-PAGE after protease treatment overnight at 32° C.” value worked out at 90%.
